Patent publication US20230084763A1 (published 2023)

T1: CD20 (UniProt P11836 1-297)
T1 chain: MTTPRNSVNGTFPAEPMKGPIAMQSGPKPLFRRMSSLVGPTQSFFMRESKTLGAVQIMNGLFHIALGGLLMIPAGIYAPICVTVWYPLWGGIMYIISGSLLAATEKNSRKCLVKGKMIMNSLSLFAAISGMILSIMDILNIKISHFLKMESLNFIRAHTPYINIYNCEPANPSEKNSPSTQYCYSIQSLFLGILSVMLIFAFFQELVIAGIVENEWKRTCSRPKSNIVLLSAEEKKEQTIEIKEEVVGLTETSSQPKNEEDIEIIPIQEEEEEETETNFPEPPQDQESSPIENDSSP


Key:
CD20 [1] = biological target: T1, CD20; assay: bio-layer interferometry; scFv, Run 2
CD20 [2] = biological target: T1, CD20; assay: bio-layer interferometry; scFv, Avg of 3 runs
CD20 [3] = biological target: T1, CD20; assay: bio-layer interferometry; scFv, Run 3
CD20 [4] = biological target: T1, CD20; assay: bio-layer interferometry; scFv, Run 1

Binder | Kd (CD20 [1]) [nM] | Kd (CD20 [2]) [nM] | Kd (CD20 [3]) [nM] | Kd (CD20 [4]) [nM]
Leu16 (antibody, V domains shown) VH: EVQLQQSGAELVKPGASVKMSCKASGYTFTSYNMHWVKQTPGQGLEWIGAIYPGNGDTSYNQKFKGKATLTADKSSSTAYMQLSSLTSEDSADYYCARSNYYGSSYWFFDVWGAGTTVTVSS VL: DIVLTQSPAILSASPGEKVTMTCRASSSVNYMDWYQKKPGSSPKPWIYATSNLASGVPARFSGSGSGTSYSLTISRVEAEDAATYYCQQWSFNPPTFGGGTKLEIK | 127 | 138 | 131 | 157
Rituximab (antibody, V domains shown) VH: QVQLQQPGAELVKPGASVKMSCKASGYTFTSYNMHWVKQTPGRGLEWIGAIYPGNGDTSYNQKFKGKATLTADKSSSTAYMQLSSLTSEDSAVYYCARSTYYGGDWYFNVWGAGTTVTVSS VL: QIVLSQSPAILSASPGEKVTMTCRASSSVSYIHWFQQKPGSSPKPWIYATSNLASGVPVRFSGSGSGTSYSLTISRVEAEDAATYYCQQWTSNPPTFGGGTKLEIK |  | 119 | 122 | 
Hybrid (antibody, V domains shown) VH: QVQLQQPGAELVKPGASVKMSCKASGYTFTSYNMHWVKQTPGRGLEWIGAIYPGNGDTSYNQKFKGKATLTADKSSSTAYMQLSSLTSEDSAVYYCARSNYYGSSYWFFDVWGAGTTVTVSS VL: QIVLSQSPAILSASPGEKVTMTCRASSSVNYMDWFQQKPGSSPKPWIYATSNLASGVPVRFSGSGSGTSYSLTISRVEAEDAATYYCQQWSFNPPTFGGGTKLEIK | 95.5 | 84.4 | 82.2 | 75.5
